Laboratory results taken from US20240309072A1.

Biological target: SARS-COV-2 Spike, Omicron variant BA.4 + R346T (BA.4.6) (SARS-COV-2), P0DTC2
Experiment: cell-based or functional assay

B1: REGN14315 (antibody, V domains shown)
VH: QVQLVQSGAEVKKPGSSVKVSCKASGDTFSTYAINWVRQAPGQGLEWMGRFIHIFGTANYAQKFQGRVTITADESTSTAYMELRSLRSEDTAVYYCARDGVDYGDYRPDYWGQGTLVTVSS
VL: EIVLTQSPGTLSLSPGERATLSCRASQSVSSNYLAWYQQKPGQAPRLLIYGASSRATGIPERFSGSGSGTDFTLTISRLEPEDFAVYYCQQYGSSLYTFGQGTKLEIK
Fold change over R10987 against D614G: 255 fold
pseudovirus neutralization IC50: 1.35 nM

B2: REGN14315 + REGN10987 (protein)
VH 1: QVQLVQSGAEVKKPGSSVKVSCKASGDTFSTYAINWVRQAPGQGLEWMGRFIHIFGTANYAQKFQGRVTITADESTSTAYMELRSLRSEDTAVYYCARDGVDYGDYRPDYWGQGTLVTVSS
VL 1: EIVLTQSPGTLSLSPGERATLSCRASQSVSSNYLAWYQQKPGQAPRLLIYGASSRATGIPERFSGSGSGTDFTLTISRLEPEDFAVYYCQQYGSSLYTFGQGTKLEIK
VH 2: QVQLVESGGGVVQPGRSLRLSCAASGFTFSNYAMYWVRQAPGKGLEWVAVISYDGSNKYYADSVKGRFTISRDNSKNTLYLQMNSLRTEDTAVYYCASGSDYGDYLLVYWGQGTLVTVSS
VL 2: QSALTQPASVSGSPGQSITISCTGTSSDVGGYNYVSWYQQHPGKAPKLMIYDVSKRPSGVSNRFSGSKSGNTASLTISGLQSEDEADYYCNSLTSISTWVFGGGTKLTVL
Fold change over R10987 against D614G: 132 fold
pseudovirus neutralization IC50: 0.698 nM

B3: REGN10987 (antibody, V domains shown)
VH: QVQLVESGGGVVQPGRSLRLSCAASGFTFSNYAMYWVRQAPGKGLEWVAVISYDGSNKYYADSVKGRFTISRDNSKNTLYLQMNSLRTEDTAVYYCASGSDYGDYLLVYWGQGTLVTVSS
VL: QSALTQPASVSGSPGQSITISCTGTSSDVGGYNYVSWYQQHPGKAPKLMIYDVSKRPSGVSNRFSGSKSGNTASLTISGLQSEDEADYYCNSLTSISTWVFGGGTKLTVL
Fold change over R10987 against D614G: 236 fold
pseudovirus neutralization IC50: 1.25 nM
